# Measured values as given in patent US20240075142A1 (LENTIGEN TECHNOLOGY, published 2024).
# T1: CD19 Fc recombinant protein (UniProt P15391 20-291)
# T1 construct: Bought staining reagent (R&D System), detected with anti-Fc-AF647; also called CD19-Fc peptide; not shown: Fc part of the bought reagent
# T1 sequence (looked up): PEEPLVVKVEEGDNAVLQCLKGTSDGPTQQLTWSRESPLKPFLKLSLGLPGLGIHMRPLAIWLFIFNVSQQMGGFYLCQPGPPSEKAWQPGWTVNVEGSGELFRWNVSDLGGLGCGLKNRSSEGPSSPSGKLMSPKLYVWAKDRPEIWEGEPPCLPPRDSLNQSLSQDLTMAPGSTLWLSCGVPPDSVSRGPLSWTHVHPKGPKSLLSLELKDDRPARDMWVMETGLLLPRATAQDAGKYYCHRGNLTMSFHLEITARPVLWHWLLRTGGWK
# Biological target: T1, CD19 Fc recombinant protein
# Assay: flow cytometry of CAR-transduced primary T cells stained with CD19 Fc, then anti-Fc AF647
# Experimental: The surface expression of anti-CD20/CD19 CARs incorporating single chain fragment variable (ScFv) sequences reactive with fully human CD20 and CD19 antigens, is shown in Example 1 infra, FIG. 1B. The expression level for each ScFv-containing CAR was determined by flow cytometric analysis of LV-transduced T cells from healthy donors using CD19 Fc recombinant protein, followed by anti Fc AF647 (APC).
# Half million CAR T cells were washed in cold AutoMACS buffer supplemented with 0.5% bovine serum albumin (Miltenyi Biotec, Bergisch Gladbach, Germany) and stained with CD19-Fc peptide (R&D System, Minneapolis, MN), followed by anti Fc-AF647 conjugate (Jackson ImmunoResearch, West Grove, PA). The 7-Aminoactinomycin D staining (7-AAD, BD Biosciences, San Jose, CA) was added to exclude dead cells. CD4 antibody labeled with Vioblue fluorochrome was used to separate CD4 and CD8 population. Non-transduced cells (UTD) were used as a negative control. Cells were washed twice, resuspended in 200 μl running buffer, and acquired by flow cytometry. Flow cytometric analysis was performed on a MACSQuant® 10 Analyzer (Miltenyi Biotec), and data plots were generated using FlowJo software (Ashland, OR).
row,Binder,binding result
1,"CAR D0255 (CD20_CD19 CD28 CD28 BBz) (other, Tandem CAR on transduced human primary T cells: CD20 scFv, G4S linker, CD19 scFv, CD28 hinge/TM, CD28_4-1BB, CD3zeta; no residue limits are stated; also called CAR DO255) EIVLTQSPATLSLSPGERATLSCRASQSVSSYLAWYQQKPGQAPRLLIYDASNRATGIPARFSGSGSGTDFTLTISSLEPEDFAVYYCQQRSNWPITFGQGTRLEIKGGGGSGGGGSGGGGSEVQLVESGGGLVQPGRSLRLSCAASGFTFNDYAMHWVRQAPGKGLEWVSTISWNSGSIGYADSVKGRFTISRDNAKKSLYLQMNSLRAEDTALYYCAKDIQYGNYYYGMDVWGQGTTVTVSSGGGGSGGGGSGGGGSGGGGSGGGGSEVQLVQSGAEVKKPGASVKVSCKASGYTFTSYYMHWVRQAPGQGLEWMGLINPSGGSTSYAQKFQGRVTMTRDTSTSTVYMELSSLRSEDTAVYYCARSDRGITATDAFDIWGQGTMVTVSSGGGGSGGGGSGGGGSQSVLTQPPSVSVAPGRMAKITCGGSDIGNKNVHWYQQKPGQAPVLVVYDDYDRPSGIPERFSGSNSGDAATLTISTVEVGDEADYFCQVWDGSGDPYWMFGGGTQLTVLGAAAIEVMYPPPYLDNEKSNGTIIHVKGKHLCPSPLFPGPSKPFWVLVVVGGVLACYSLLVTVAFIIFWVRSKRSRLLHSDYMNMTPRRPGPTRKHYQPYAPPRDFAAYRSKRGRKKLLYIFKQPFMRPVQTTQEEDGCSCRFPEEEEGGCELRVKFSRSADAPAYQQGQNQLYNELNLGRREEYDVLDKRRGRDPEMGGKPRRKNPQEGLYNELQKDKMAEAYSEIGMKGERRRGKGHDGLYQGLSTATKDTYDALHMQALPPR",binds
2,"CAR D0256 (CD20_CD19 CD8 CD28 BBz) (other, Tandem CAR on transduced human primary T cells: CD20 scFv, G4S linker, CD19 scFv, CD8 hinge/TM, CD28_4-1BB, CD3zeta; no residue limits are stated) EIVLTQSPATLSLSPGERATLSCRASQSVSSYLAWYQQKPGQAPRLLIYDASNRATGIPARFSGSGSGTDFTLTISSLEPEDFAVYYCQQRSNWPITFGQGTRLEIKGGGGSGGGGSGGGGSEVQLVESGGGLVQPGRSLRLSCAASGFTFNDYAMHWVRQAPGKGLEWVSTISWNSGSIGYADSVKGRFTISRDNAKKSLYLQMNSLRAEDTALYYCAKDIQYGNYYYGMDVWGQGTTVTVSSGGGGSGGGGSGGGGSGGGGSGGGGSEVQLVQSGAEVKKPGASVKVSCKASGYTFTSYYMHWVRQAPGQGLEWMGLINPSGGSTSYAQKFQGRVTMTRDTSTSTVYMELSSLRSEDTAVYYCARSDRGITATDAFDIWGQGTMVTVSSGGGGSGGGGSGGGGSQSVLTQPPSVSVAPGRMAKITCGGSDIGNKNVHWYQQKPGQAPVLVVYDDYDRPSGIPERFSGSNSGDAATLTISTVEVGDEADYFCQVWDGSGDPYWMFGGGTQLTVLGAAATTTPAPRPPTPAPTIASQPLSLRPEACRPAAGGAVHTRGLDFACDIYIWAPLAGTCGVLLLSLVITLYCRSKRSRLLHSDYMNMTPRRPGPTRKHYQPYAPPRDFAAYRSKRGRKKLLYIFKQPFMRPVQTTQEEDGCSCRFPEEEEGGCELRVKFSRSADAPAYQQGQNQLYNELNLGRREEYDVLDKRRGRDPEMGGKPRRKNPQEGLYNELQKDKMAEAYSEIGMKGERRRGKGHDGLYQGLSTATKDTYDALHMQALPPR",binds
